Columns and labels:
[1] = biological target: Bovine annexin A2 (bovine) (UniProt P04272); assay: SPR; AnxA2 or mAnxA2 immobilised on a CM5 chip by amine coupling, NS5B (31 to 500 nM) as analyte; multi cycle with regeneration (2 M NaCl and 2 M MgCl2); 25 °C, HBS-EP pH 7.4 with 70 uM Ca2+ and 1 mM Mg2+; approximate steady state analysis, apparent KD
[2] = biological target: Bovine annexin A2 engineered variant unable to bind RNA (mAnxA2) (bovine) (UniProt P04272); assay: as above
mAnxA2 = mAnxA2 (Bos taurus (bovine), UniProt P04272 1-339, K308S;K309S;K310S;K313S;Y317S;Q321S); assay: SPR; 3-100 nM RNA over immobilized mAnxA2; 70 uM Ca2+, 1 mM Mg2+; HBS-EP: 10 mM HEPES pH 7.4, 150 mM NaCl, 3 mM EDTA, 0.005% Surfactant P20, 70 uM Ca2+, 1 mM Mg2+, 25 °C; settings: protein: recombinant; single strand
AnxA2 (annexin A2, wt) [3] = biological target: T1, AnxA2 (annexin A2, wt) (Bos taurus (bovine), UniProt P04272 1-339); assay: SPR; steady-state analysis; 70 uM Ca2+, 1 mM Mg2+; AnxA2 immobilized; HBS-EP: 10 mM HEPES pH 7.4, 150 mM NaCl, 3 mM EDTA, 0.005% Surfactant P20, 70 uM Ca2+, 1 mM Mg2+, 25 °C; settings: protein: recombinant; single strand
AnxA2 (annexin A2, wt) [4] = biological target: T1, AnxA2 (annexin A2, wt); assay: SPR; kinetic 1:1 fit (ka 0.99e6 1/Ms, kd 0.002 1/s); 70 uM Ca2+, 1 mM Mg2+; AnxA2 immobilized; HBS-EP: 10 mM HEPES pH 7.4, 150 mM NaCl, 3 mM EDTA, 0.005% Surfactant P20, 70 uM Ca2+, 1 mM Mg2+, 25 °C; settings: protein: recombinant; single strand

Molecule | Kd [1] | Kd [2] | binding result (mAnxA2) | Kd (AnxA2 (annexin A2, wt) [3]) | Kd (AnxA2 (annexin A2, wt) [4])
HCV NS5B polymerase, ectodomain (NS5BΔ21), genotype 1b (enzyme) | 30 nM | 240 nM | – | – | –
GGGGAUUG (ssRNA) [8-mer RNA] | – | – | no binding | 8.3 nM | 2 nM
